Source: patent US20240270846A1 (published 2024)

biological target: T1, CD3 epsilon homodimer protein (UniProt P07766 23-126); test: SPR Biacore T200, CD3 epsilon homodimer immobilized; vs unaltered GLS3000;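 further: antibody variants flowed as analyte over CD3 epsilon homodimer amine-coupled to a CM4 chip, at 25 °C in HBS-EP+ running buffer, fitted with Biacore T200 Evaluation Software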
T1 construct: construct not described; homodimer as printed; also called CD3 (CD3 epsilon)
T1 sequence (P07766 23-126): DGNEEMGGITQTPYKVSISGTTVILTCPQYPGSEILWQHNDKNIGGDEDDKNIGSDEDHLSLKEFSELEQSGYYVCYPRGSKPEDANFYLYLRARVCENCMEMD

Row | Binder | KD ratio to GLS3000 (Affinity up)
1 | GLS3000 S27aD (Kabat) L chain altered form, one-arm antibody with CE115HA000 (antibody, human IgG1, kappa, L234A L235A, N297A, name in Kabat numbering, one-arm antibody) heavy: QVQLVESGGGVVQPGRSLRLSCAASGFTFSNAWMHWVRQAPGKGLEWVAQIKAKSNNYATYYAESVKGRFTISRDDSKNSLYLQMNSLKTEDTAVYYCRYVHYGAYYGVDAWGQGTTVTVSSASTKGPSVFPLAPSSKSTSGGTAALGCLVKDYFPEPVTVSWNSGALTSGVHTFPAVLQSSGLYSLSSVVTVPSSSLGTQTYICNVNHKPSNTKVDKKVEPKSCDKTHTCPPCPAPEAAGGPSVFLFPPKPKDTLMISRTPEVTCVVVDVSHEDPEVKFNWYVDGVEVHNAKTKPREEQYASTYRVVSVLTVLHQDWLNGKEYKCKVSNKALPAPIEKTISKAKGQPREPQVYTLPPSRCELTKNQVSLSCAVKGFYPSDIAVEWESNGQPENNYKTTPPVLDSDGSFFLVSKLTVDKSRWQQGNVFSCSVMHEALHNHYTQKSLSLSPDYKDDDDK EPKSSDKTHTCPPCPAPELLGGPSVFLFPPKPKDTLMISRTPEVTCVVVDVSHEDPEVKFNWYVDGVEVHNAKTKPREEQYNSTYRVVSVLTVLHQDWLNGKEYKCKVSNKALPAPIEKTISKAKGQPREPQVCTLPPSRDELTKNQVSLWCLVKGFYPSDIAVEWESNGQPENNYKTTPPVLDSDGSFFLYSKLTVDKSRWQQGNVFSCSVMHEALHNRYTQKSLSLSP light: DIVMTQSPLSLPVTPGEPASISCRSSQDLVHSNRNTYLHWYQQKPGQAPRLLIYKVSNRFSGVPDRFSGSGSGTDFTLKISRVEAEDVGVYYCGQGTQVPYTFGQGTKLEIKRTVAAPSVFIFPPSDEQLKSGTASVVCLLNNFYPREAKVQWKVDNALQSGNSQESVTEQDSKDSTYSLSSTLTLSKADYEKHKVYACEVTHQGLSSPVTKSFNRGEC | 0.94
2 | GLS3000 S27aN (Kabat) L chain altered form, one-arm antibody with CE115HA000 (antibody, human IgG1, kappa, L234A L235A, N297A, name in Kabat numbering, one-arm antibody) heavy: QVQLVESGGGVVQPGRSLRLSCAASGFTFSNAWMHWVRQAPGKGLEWVAQIKAKSNNYATYYAESVKGRFTISRDDSKNSLYLQMNSLKTEDTAVYYCRYVHYGAYYGVDAWGQGTTVTVSSASTKGPSVFPLAPSSKSTSGGTAALGCLVKDYFPEPVTVSWNSGALTSGVHTFPAVLQSSGLYSLSSVVTVPSSSLGTQTYICNVNHKPSNTKVDKKVEPKSCDKTHTCPPCPAPEAAGGPSVFLFPPKPKDTLMISRTPEVTCVVVDVSHEDPEVKFNWYVDGVEVHNAKTKPREEQYASTYRVVSVLTVLHQDWLNGKEYKCKVSNKALPAPIEKTISKAKGQPREPQVYTLPPSRCELTKNQVSLSCAVKGFYPSDIAVEWESNGQPENNYKTTPPVLDSDGSFFLVSKLTVDKSRWQQGNVFSCSVMHEALHNHYTQKSLSLSPDYKDDDDK EPKSSDKTHTCPPCPAPELLGGPSVFLFPPKPKDTLMISRTPEVTCVVVDVSHEDPEVKFNWYVDGVEVHNAKTKPREEQYNSTYRVVSVLTVLHQDWLNGKEYKCKVSNKALPAPIEKTISKAKGQPREPQVCTLPPSRDELTKNQVSLWCLVKGFYPSDIAVEWESNGQPENNYKTTPPVLDSDGSFFLYSKLTVDKSRWQQGNVFSCSVMHEALHNRYTQKSLSLSP light: DIVMTQSPLSLPVTPGEPASISCRSSQNLVHSNRNTYLHWYQQKPGQAPRLLIYKVSNRFSGVPDRFSGSGSGTDFTLKISRVEAEDVGVYYCGQGTQVPYTFGQGTKLEIKRTVAAPSVFIFPPSDEQLKSGTASVVCLLNNFYPREAKVQWKVDNALQSGNSQESVTEQDSKDSTYSLSSTLTLSKADYEKHKVYACEVTHQGLSSPVTKSFNRGEC | 0.98
3 | GLS3000 S27aG (Kabat) L chain altered form, one-arm antibody with CE115HA000 (antibody, human IgG1, kappa, L234A L235A, N297A, name in Kabat numbering, one-arm antibody) heavy: QVQLVESGGGVVQPGRSLRLSCAASGFTFSNAWMHWVRQAPGKGLEWVAQIKAKSNNYATYYAESVKGRFTISRDDSKNSLYLQMNSLKTEDTAVYYCRYVHYGAYYGVDAWGQGTTVTVSSASTKGPSVFPLAPSSKSTSGGTAALGCLVKDYFPEPVTVSWNSGALTSGVHTFPAVLQSSGLYSLSSVVTVPSSSLGTQTYICNVNHKPSNTKVDKKVEPKSCDKTHTCPPCPAPEAAGGPSVFLFPPKPKDTLMISRTPEVTCVVVDVSHEDPEVKFNWYVDGVEVHNAKTKPREEQYASTYRVVSVLTVLHQDWLNGKEYKCKVSNKALPAPIEKTISKAKGQPREPQVYTLPPSRCELTKNQVSLSCAVKGFYPSDIAVEWESNGQPENNYKTTPPVLDSDGSFFLVSKLTVDKSRWQQGNVFSCSVMHEALHNHYTQKSLSLSPDYKDDDDK EPKSSDKTHTCPPCPAPELLGGPSVFLFPPKPKDTLMISRTPEVTCVVVDVSHEDPEVKFNWYVDGVEVHNAKTKPREEQYNSTYRVVSVLTVLHQDWLNGKEYKCKVSNKALPAPIEKTISKAKGQPREPQVCTLPPSRDELTKNQVSLWCLVKGFYPSDIAVEWESNGQPENNYKTTPPVLDSDGSFFLYSKLTVDKSRWQQGNVFSCSVMHEALHNRYTQKSLSLSP light: DIVMTQSPLSLPVTPGEPASISCRSSQGLVHSNRNTYLHWYQQKPGQAPRLLIYKVSNRFSGVPDRFSGSGSGTDFTLKISRVEAEDVGVYYCGQGTQVPYTFGQGTKLEIKRTVAAPSVFIFPPSDEQLKSGTASVVCLLNNFYPREAKVQWKVDNALQSGNSQESVTEQDSKDSTYSLSSTLTLSKADYEKHKVYACEVTHQGLSSPVTKSFNRGEC | 0.8
4 | GLS3000 S27aI (Kabat) L chain altered form, one-arm antibody with CE115HA000 (antibody, human IgG1, kappa, L234A L235A, N297A, name in Kabat numbering, one-arm antibody) heavy: QVQLVESGGGVVQPGRSLRLSCAASGFTFSNAWMHWVRQAPGKGLEWVAQIKAKSNNYATYYAESVKGRFTISRDDSKNSLYLQMNSLKTEDTAVYYCRYVHYGAYYGVDAWGQGTTVTVSSASTKGPSVFPLAPSSKSTSGGTAALGCLVKDYFPEPVTVSWNSGALTSGVHTFPAVLQSSGLYSLSSVVTVPSSSLGTQTYICNVNHKPSNTKVDKKVEPKSCDKTHTCPPCPAPEAAGGPSVFLFPPKPKDTLMISRTPEVTCVVVDVSHEDPEVKFNWYVDGVEVHNAKTKPREEQYASTYRVVSVLTVLHQDWLNGKEYKCKVSNKALPAPIEKTISKAKGQPREPQVYTLPPSRCELTKNQVSLSCAVKGFYPSDIAVEWESNGQPENNYKTTPPVLDSDGSFFLVSKLTVDKSRWQQGNVFSCSVMHEALHNHYTQKSLSLSPDYKDDDDK EPKSSDKTHTCPPCPAPELLGGPSVFLFPPKPKDTLMISRTPEVTCVVVDVSHEDPEVKFNWYVDGVEVHNAKTKPREEQYNSTYRVVSVLTVLHQDWLNGKEYKCKVSNKALPAPIEKTISKAKGQPREPQVCTLPPSRDELTKNQVSLWCLVKGFYPSDIAVEWESNGQPENNYKTTPPVLDSDGSFFLYSKLTVDKSRWQQGNVFSCSVMHEALHNRYTQKSLSLSP light: DIVMTQSPLSLPVTPGEPASISCRSSQILVHSNRNTYLHWYQQKPGQAPRLLIYKVSNRFSGVPDRFSGSGSGTDFTLKISRVEAEDVGVYYCGQGTQVPYTFGQGTKLEIKRTVAAPSVFIFPPSDEQLKSGTASVVCLLNNFYPREAKVQWKVDNALQSGNSQESVTEQDSKDSTYSLSSTLTLSKADYEKHKVYACEVTHQGLSSPVTKSFNRGEC | 0.87
5 | GLS3000 S27aE (Kabat) L chain altered form, one-arm antibody with CE115HA000 (antibody, human IgG1, kappa, L234A L235A, N297A, name in Kabat numbering, one-arm antibody) heavy: QVQLVESGGGVVQPGRSLRLSCAASGFTFSNAWMHWVRQAPGKGLEWVAQIKAKSNNYATYYAESVKGRFTISRDDSKNSLYLQMNSLKTEDTAVYYCRYVHYGAYYGVDAWGQGTTVTVSSASTKGPSVFPLAPSSKSTSGGTAALGCLVKDYFPEPVTVSWNSGALTSGVHTFPAVLQSSGLYSLSSVVTVPSSSLGTQTYICNVNHKPSNTKVDKKVEPKSCDKTHTCPPCPAPEAAGGPSVFLFPPKPKDTLMISRTPEVTCVVVDVSHEDPEVKFNWYVDGVEVHNAKTKPREEQYASTYRVVSVLTVLHQDWLNGKEYKCKVSNKALPAPIEKTISKAKGQPREPQVYTLPPSRCELTKNQVSLSCAVKGFYPSDIAVEWESNGQPENNYKTTPPVLDSDGSFFLVSKLTVDKSRWQQGNVFSCSVMHEALHNHYTQKSLSLSPDYKDDDDK EPKSSDKTHTCPPCPAPELLGGPSVFLFPPKPKDTLMISRTPEVTCVVVDVSHEDPEVKFNWYVDGVEVHNAKTKPREEQYNSTYRVVSVLTVLHQDWLNGKEYKCKVSNKALPAPIEKTISKAKGQPREPQVCTLPPSRDELTKNQVSLWCLVKGFYPSDIAVEWESNGQPENNYKTTPPVLDSDGSFFLYSKLTVDKSRWQQGNVFSCSVMHEALHNRYTQKSLSLSP light: DIVMTQSPLSLPVTPGEPASISCRSSQELVHSNRNTYLHWYQQKPGQAPRLLIYKVSNRFSGVPDRFSGSGSGTDFTLKISRVEAEDVGVYYCGQGTQVPYTFGQGTKLEIKRTVAAPSVFIFPPSDEQLKSGTASVVCLLNNFYPREAKVQWKVDNALQSGNSQESVTEQDSKDSTYSLSSTLTLSKADYEKHKVYACEVTHQGLSSPVTKSFNRGEC | 0.94
6 | GLS3000 S27aP (Kabat) L chain altered form, one-arm antibody with CE115HA000 (antibody, human IgG1, kappa, L234A L235A, N297A, name in Kabat numbering, one-arm antibody) heavy: QVQLVESGGGVVQPGRSLRLSCAASGFTFSNAWMHWVRQAPGKGLEWVAQIKAKSNNYATYYAESVKGRFTISRDDSKNSLYLQMNSLKTEDTAVYYCRYVHYGAYYGVDAWGQGTTVTVSSASTKGPSVFPLAPSSKSTSGGTAALGCLVKDYFPEPVTVSWNSGALTSGVHTFPAVLQSSGLYSLSSVVTVPSSSLGTQTYICNVNHKPSNTKVDKKVEPKSCDKTHTCPPCPAPEAAGGPSVFLFPPKPKDTLMISRTPEVTCVVVDVSHEDPEVKFNWYVDGVEVHNAKTKPREEQYASTYRVVSVLTVLHQDWLNGKEYKCKVSNKALPAPIEKTISKAKGQPREPQVYTLPPSRCELTKNQVSLSCAVKGFYPSDIAVEWESNGQPENNYKTTPPVLDSDGSFFLVSKLTVDKSRWQQGNVFSCSVMHEALHNHYTQKSLSLSPDYKDDDDK EPKSSDKTHTCPPCPAPELLGGPSVFLFPPKPKDTLMISRTPEVTCVVVDVSHEDPEVKFNWYVDGVEVHNAKTKPREEQYNSTYRVVSVLTVLHQDWLNGKEYKCKVSNKALPAPIEKTISKAKGQPREPQVCTLPPSRDELTKNQVSLWCLVKGFYPSDIAVEWESNGQPENNYKTTPPVLDSDGSFFLYSKLTVDKSRWQQGNVFSCSVMHEALHNRYTQKSLSLSP light: DIVMTQSPLSLPVTPGEPASISCRSSQPLVHSNRNTYLHWYQQKPGQAPRLLIYKVSNRFSGVPDRFSGSGSGTDFTLKISRVEAEDVGVYYCGQGTQVPYTFGQGTKLEIKRTVAAPSVFIFPPSDEQLKSGTASVVCLLNNFYPREAKVQWKVDNALQSGNSQESVTEQDSKDSTYSLSSTLTLSKADYEKHKVYACEVTHQGLSSPVTKSFNRGEC | 1.01
